# Experiments:
# [1] = molecular target: T1, Recombinant human Gal3 (rhGal3) (TrueBinding, #QC200361) (human, UniProt P17931 2-250); test: cell-based or functional assay
# [2] = molecular target: T1, Recombinant human Gal3 (rhGal3) …; test: cell-based or functional assay; remark: listed apart in the source
# Further: test concentration or dose not given here.
Binder,% inhibition of CD62L shedding [1] [%],% inhibition of IL-6 secretion [2] [%],% inhibition of TNFα secretion [2] [%]
"847.16D10 (antibody, V domains shown) VH: QVQLQQSGAELVRPGASVKLSCKASGYTFTGYWLNWVKQRPGQGLEWIGMIDPSDSETHYNQVFKDKATMTVDRSSSTAYMQLSGLTSEDSAVYYCANSNYASGSWGQGTTLTVSS VL: QAVVTQESALTTSPGETVTLTCRSSTGAVTTSNYANWDQEKPDHLFTGLIGGTNNRAPGVPARFSGSLIGDKAALTITGAQTEDEAIYFCALWYSNHLVFGGGTKVTVL",14.4,–,–
"20H5.A3 (antibody, mouse IgG2a, V domains shown) VH: QIQLVQSGPELKKPGESVKISCKASGYAFTTYGMSWVQQAPGKGLKWMGWVNTYSGVPTCADDFKGRFAFSLETSASTAYLQINNLRNEDTATYFCARGPYAMDYWGQGTSVTVSS VL: DIQMTQTTSSLSASLGDRVTINCSASQDISNYLNWYQQKPDGTVKLLIYYTSSLLSGVPSRFSGSGSGTDYSLTISNLEPEDIATYFCQQYSKLPYTFGSGTHLEIKR",66.3,77.5,60.8
"23H9.2E4 (antibody, mouse IgG2a, V domains shown) VH: QIQLVQSGPELKKPGETVKISCKASGYTFTTYAMSWVKQAPGKGLKWMGWINTYSGVPTYADDLKGRFAFSLETSASTAYLQINNLKNEDTATYFCARGPYAMDYWGQGTSVTVSS VL: DIQMTQTTSSLSASLGDRVTISCSASQGINNYLNWYQQKPDGTVKLLIYYASSLHSGVPSRFSGSGSGTDYSLTISNLEPEDIATYYCQQYSQVPYTFGSGTKLEIKR",91.9,92.6,100
"15G7.2A7 (antibody, human IgG4 S228P, kappa, V domains shown) VH: EVQLQQSGPELVKPGASVKISCKASGYTFTDYYMNWVKQSHGKSLEWIGDINPNNGGTNYNQKFKGKATLTVDKSSSTAYMELRSLTSEDSAVYYCTSGYGFPYWGQGTLVTVSA VL: DIQMNQSPSSLSASLGDTISITCRASQNINIWLSWYQQKPGNIPQLLIYKASNLHTGVPSRFSGSGSGTDFTLTISSLQPEDIATYYCLQGQSYPLTFGAGTKLVMKR",110,31,46.1
"20D11.2C6 (antibody, mouse IgG2a, V domains shown) VH: EVQLQQSGPELVKPGASVKISCKASGYTFTDFYINWVKQSHGKSLEWIGDINPKNGGINYNPKFKIKATLTVDKSSSTSYMDLRGLTSEDSAVYYCTSGYGFPYWGQGTLVTVSA VL: DIQMNQSPSSLSASLGDTITITCRASQNIYIWLSWYQQKPGNIPKLLIYKASNLHTGVPSRFSGSGSGTDFTLTISTLQPEDIATYFCLQGQSYPLTFGAGTKLEMKR",89.4,43.7,69.1
"849.5H1 (antibody, V domains shown) VH: QVQLKESGPVLVAPSQSLSITCTVSGFSLTSYGIHWVRQPPGKGLEWLGVIWAGGSTNYNSALMSRLSISKDNSKSQVFLKMNSLQIDDTAMYYCAKPPHDYDQAWFAYWGQGTLITVSA VL: DIQMNQSPSSLSASLGDTITITCHASQNINVWLSWYQQKPGNIPKLLIYQASNLHTGVPSRFSGRGSGTGFTLTISSLQPEDIATYYCQQGQSSPFTFGSGTKLEIK",87.5,–,–
"2D10-VH0-VL0 (antibody, human IgG4 S228P, kappa, V domains shown) VH: QVQLQQSGPELVKPGASVKISCKASGYTFTDYYINWVKQRPGQGLEWIGWIYPGSQDTKYNEKFKGKATLTVDTSSSTAYMQLGSLTSEDSAVYFCANYFGSSGWFFDVWGTGTTVTVSS VL: DIVMTQAAFSNPVTLGTSASISCRSSKSLLHSDGITYLYWYLQRPGQSPQLLIYRMSNLASGVPDRFSGSGSGTDFTLRISRVEAEDVGVYYCAQMIEFPLTFGAGTILELKR",62.4,21.7,39.6
"14H10.2C9 (antibody, mouse IgG2a, V domains shown) VH: QIQLVQSGPELKKPGETVKISCKASGYTFTTYGMGWVKQAPGKDLKWMGWINTYSGVPTYADDFKGRFAFSLETSASTAYLQISNLKNEDTATYFCSTPYEYDGAYWGQGTLVTVSA VL: not shown",86.3,55.6,54
"15F10.2D6 (antibody, mouse IgG2a, V domains shown) VH: EVQLVESGGGLVKPGGSLKLSCAASGFAFSSYAMSWVRQTPEKRLEWVATISDGGVYTYYTDHVKGRFTISRDNAEDNLYLQMSHLKSEDTAMYYCVRDGGYWGQGTTLTVSS VL: DVLMTQTPLSLPVSLGDQASISCRSSQSIVHNNGNTYLEWYLQKPGQSPKLLIYKVSNRFSGVPDRFSGSGSGTDFTLKISRVEAEDLGVYYCFQGSHVPLTFGGGTKLELKR",82.5,51.5,73.5
"7D8.2D8 (antibody, mouse IgG2a, V domains shown) VH: EVQLVESGGGLVKPGGSLKLSCAASGFTFSSYAMSWVRQTPEKRLEWVATISDGGIYTYYPDNVKGRFTISRDNAKNNLFLQMSHLKSEDTAMYYCVRDGGYWGQGTTLTVSS VL: DVLMTQTPLSLPVSLGDQASISCRSSQSIVHSNGNTYLEWYLQKPGQSPKLLIYKVSNRFSGVPDRFSGSGSGTDFTLKISRVEAEDLGVYYCFQGSHVPLTFGAGTKLELKR",88.6,17.4,-11.5
"3B11.2G2 (antibody, mouse IgG2a, V domains shown) VH: QIQLVQSGPELKKPGETVKISCKTSGYKFKTYVMSWVKQAPGKALKWMGWINTYSGVPTYADDFKGRFAFSLETSASTAYLEIINLKNEDTATYFCARDGNYGDPMDYWGQGTSVTVSS VL: not shown",92.7,-4.6,46.1
"13A12.2E5 (antibody, mouse IgG2a, V domains shown) VH: QIQLVQSGPELKKPGETVKISCKTSGYKFKTYVMSWVKQAPGKALKWMGWINTYSGVPTYADDFKGRFAFSLETSASTAYLEIINLKNEDTATYFCARDGNYGDPMDYWGQGTSVTVSS VL: DVVMTQTPLTLSVAIGQPASISCKSSQSLLYTNGKTYLNWLLQRPGQSPKRLIYLLSKLDSGVPDRFSASGSGTDFTLKISRVEAEDLGVYYCLQSTHFPLTFGAGTKLEMKR",87.1,39.4,61.8
"847.23F11 (antibody, V domains shown) VH: QVQLQQSGAELVRPGASVKLSCKASGYTFTSSWMNWVKQRPGQGLDWIGMIDPSDSETHYNQMFKDKATLTVDKSSNTAYMQLSRLTSEDSAVYYCVNSNYESGYWGQGTTLTVSS VL: DILMTQSHKFMSTSVGDRVSITCKASQDVSSVVVWYQQKPGQSPKQLIYWASTRHTGVPDRFTGSGSGTDYTLTISSVQAEDLALYYCQQHYSTPYTFGGGTKLEIK",15.2,–,–
"847.13E2-mH0mL1 (antibody, V domains shown) VH: EVQLQQSGPELVKPGASVKVSCKASGYSFTDYNMYWVMQSHGKSLEWIGYIDPYNDATSYSQKFTGKATLTVDKSSSTAFMHLNSLTSEDSAVYYCARWGRYEYYAMDYWGQGTSVTVSS VL: DIVMTQSPASLPVSLGQRATISCRASKSVTTSAYSYIHWYQQRPGQPPKLLIYLASNLESGVPARFSGSGSGTDFTLNIHPVEEEDAATYYCQHNRELPPTFGGGTKLEIN",79.9,–,–
"847.13E2-mH0mL2 (antibody, V domains shown) VH: EVQLQQSGPELVKPGASVKVSCKASGYSFTDYNMYWVMQSHGKSLEWIGYIDPYNDATSYSQKFTGKATLTVDKSSSTAFMHLNSLTSEDSAVYYCARWGRYEYYAMDYWGQGTSVTVSS VL: DIVLTQSPATLSVTPGDSVSFSCRASQIINNNLHWYQQKSHESPRLLIRYTSQSISGIPSRFSGSGSGTDFTLSINNVETEDFGMYFCQQTNSWPLTFGAGTKLELK",18.8,–,–
